± gives the uncertainty stated by the source.
Experiment: protein stability index of a GFP-peptide fusion (yeast GPS) (PSI 1-4); higher = more stable; sorted into four equal gates, so the index is relative within each strain
Method in brief: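 Yeast carrying a pooled library were grown to mid-log phase in leucine-free medium. Each library plasmid expresses Cherry and has a tiled 17-residue yeast protein peptide fused downstream of GFP. Cells were sorted into four equal gates by GFP/Cherry ratio, and plasmids from each gate were PCR-amplified, Illumina-sequenced and assigned to strains by barcode. Summing, across gates, the read frequency times the gate number gave each peptide's protein stability index.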

| Sequence | protein stability index (doa10∆) | protein stability index (pdr5∆) | protein stability index (san1∆) | protein stability index (ubr1∆) |
| --- | --- | --- | --- | --- |
| KVLEMKNLKDTASVEKA [YIL149C/MLP2] | 2.95 ± 0.091 | 3.26 ± 0.093 | 3.08 ± 0.098 | 3.21 ± 0.08 |
| HNHDTGCDENDSTVNKS [YDL088C/ASM4] | 3.2 ± 0.09 | 3.2 ± 0.079 | 3.3 ± 0.057 | 3.05 ± 0.068 |
| TGAPPYYYNTKIYKLEN [YMR129W/POM152] | 2.8 ± 0.063 | 2.72 ± 0.064 | 2.5 ± 0.11 | 3.17 ± 0.041 |
| QDDEYVKDWLYDSRPLE [PRP8] | 3.25 ± 0.16 | 3.43 ± 0.11 | 3.18 ± 0.13 | 3.02 ± 0.068 |
| NENNSNGGEDTSVENEG [REC8] | 3.31 ± 0.14 | 3.44 ± 0.14 | 3.05 ± 0.15 | 3.07 ± 0.089 |
| TVLFFIGVRCYEAYPNT [FAS1] | 1.21 ± 0.054 | 1.23 ± 0.049 | 1.66 ± 0.1 | 1.8 ± 0.043 |
| ETIIFDSELNRALFETK [RRI1] | 3.03 ± 0.14 | 2.66 ± 0.14 | 3.2 ± 0.062 | 3.35 ± 0.17 |
| VPYVVTHDGRTIRYPDP [RPS4A] | 3.08 ± 0.1 | 3.16 ± 0.17 | – | 3.38 ± 0.19 |
| QNFAEEDDSSNSCFSDG [REC8] | 2.56 ± 0.15 | 2.59 ± 0.1 | 2.58 ± 0.12 | 3.33 ± 0.12 |
| LLCDKAQKNTQSYGGRP [PRE5] | 3.17 ± 0.14 | 3.27 ± 0.095 | 3.37 ± 0.092 | 3.26 ± 0.077 |
| SAGAVFKSSVEMGKTDK [YOR098C/NUP1] | 3.5 ± 0.095 | 3.25 ± 0.1 | 3.29 ± 0.058 | 3.47 ± 0.047 |
| DEKGNEIKVGKQRFQGC [ARP9] | 2.88 ± 0.18 | 3.1 ± 0.17 | 3.06 ± 0.1 | 3.41 ± 0.1 |
| TISSLFVQLCEMGYLIQ [RPC82] | 1.85 ± 0.061 | 1.69 ± 0.078 | 1.61 ± 0.16 | 2.39 ± 0.081 |
| EKKPAAKKTSTSVDGKK [HTB2] | 2.38 ± 0.2 | 2.94 ± 0.15 | 2.72 ± 0.19 | 2.55 ± 0.2 |
| FGKKRLDLAGPLLAQLF [RPB2] | 1.44 ± 0.19 | 1.79 ± 0.16 | 1.42 ± 0.15 | 1.4 ± 0.18 |
| FLNHAFDYMNRYWVQKE [CDC53] | 2.1 ± 0.056 | 2.48 ± 0.056 | 1.89 ± 0.067 | 1.94 ± 0.046 |
| LSKLCVPVANQFINLAG [QCR7] | 1.98 ± 0.059 | 2.13 ± 0.071 | 1.81 ± 0.058 | 1.94 ± 0.033 |
| AVDNCAICRNHIMEPCI [HRT1] | 2.12 ± 0.071 | 2.79 ± 0.09 | 2.02 ± 0.086 | 2.2 ± 0.07 |
| GSRKVAGILRGYDIFLN [SMX2] | 2.5 ± 0.11 | 1.67 ± 0.08 | 1.83 ± 0.15 | 1.98 ± 0.099 |
| SVPEGTIVSNVEEKPGD [RPL2A] | 3.23 ± 0.1 | 3.02 ± 0.082 | 3.39 ± 0.059 | 3.39 ± 0.11 |
| LINLKISPLMKSQYNMV [SRB8] | 1.8 ± 0.085 | 1.59 ± 0.08 | 2.07 ± 0.14 | 1.53 ± 0.12 |
| RKCQFRTPDSISVNSSS [POP1] | 2.44 ± 0.074 | 2.52 ± 0.073 | 2.64 ± 0.056 | 2.37 ± 0.062 |
| PSHEKLKESYSQKHNGR [CDC53] | 3.23 ± 0.13 | 3.13 ± 0.071 | 2.94 ± 0.047 | 3.04 ± 0.08 |
| LDKDRKALIQRKGGKLE [RPL26A] | 2.48 ± 0.18 | 3.5 ± 0.21 | 3.12 ± 0.09 | 2.97 ± 0.14 |
| SGDSGVYTLACRSCPYE [RPC11] | 1.28 ± 0.13 | 2.01 ± 0.18 | – | 1.26 ± 0.15 |
| LNDRQEEISRLQRDLIQ [YIL149C/MLP2] | 2.72 ± 0.11 | 3.25 ± 0.25 | 3.07 ± 0.26 | 3.05 ± 0.12 |

| Sequence | protein stability index (doa10∆) | protein stability index (pdr5∆) | protein stability index (san1∆) | protein stability index (ubr1∆) |
| --- | --- | --- | --- | --- |
| DFNQAFEGTDDNEEASV [BRN1] | 3.09 ± 0.14 | 3.17 ± 0.13 | 3.39 ± 0.15 | 3.53 ± 0.12 |
| ENANADLENKFNRLKKQ [YIL149C/MLP2] | 3.06 ± 0.067 | 3.07 ± 0.057 | 3.09 ± 0.068 | 3 ± 0.037 |
| TVVQVYDNGQVFPSSIL [RPP0] | 1.19 ± 0.059 | 1.29 ± 0.13 | – | 1.29 ± 0.14 |
| MAHRVKVIPYSTFRLNL [RPO21] | 1.87 ± 0.07 | 1.82 ± 0.071 | 1.2 ± 0.12 | 2.29 ± 0.095 |
| INYQVDSKLLPKNIEPP [SWI3] | 2.92 ± 0.083 | 2.81 ± 0.1 | 2.58 ± 0.064 | 2.65 ± 0.066 |
| LIETVRQMKDVNAPLPT [RPN2] | 3.12 ± 0.055 | 3.12 ± 0.051 | 2.9 ± 0.05 | 3.04 ± 0.036 |
| ILSLEQSSRVVSLSQLL [YCS4] | 1.84 ± 0.072 | 1.5 ± 0.05 | 2.12 ± 0.098 | 1.85 ± 0.063 |
| TVPRIVQLLSKSHNAHV [RPN2] | 1.91 ± 0.056 | 1.69 ± 0.044 | 2.08 ± 0.067 | 1.98 ± 0.048 |
| TQLQICLDQMTEQFCAT [SRB7] | 2.74 ± 0.063 | 2.88 ± 0.065 | 2.54 ± 0.08 | 2.52 ± 0.052 |
| LSILKGDYSQATVLSRK [RPN5] | 3.08 ± 0.07 | 3.02 ± 0.06 | 3.03 ± 0.075 | 2.72 ± 0.056 |
| VYNLALKCAERQLTSME [NUT1] | 2.38 ± 0.073 | 2.2 ± 0.052 | 2.09 ± 0.07 | 2.31 ± 0.029 |
| GVTKGYKYKMRYVYAHF [RPL9A] | 2.73 ± 0.14 | – | 3.12 ± 0.12 | 2.87 ± 0.16 |
| ESLVHSALCILKEQELV [BRR2] | 2.35 ± 0.2 | 1.77 ± 0.079 | 1.92 ± 0.14 | 2.51 ± 0.13 |
| SRYEPKVFDCGDNIVMS [PRE7] | 2.49 ± 0.12 | 2.78 ± 0.11 | 2.89 ± 0.11 | 2.06 ± 0.23 |
| QGRRNSRNFSTRDEETT [SIR4] | 3.04 ± 0.064 | 3.11 ± 0.055 | 3.12 ± 0.041 | 2.98 ± 0.041 |
| LESINEGNQIIVFVHSR [BRR2] | 1.76 ± 0.073 | 1.88 ± 0.064 | 1.62 ± 0.066 | 1.76 ± 0.071 |
| LDPLTKDPVDFVRQAAM [RPN2] | 3.39 ± 0.12 | 3.53 ± 0.14 | 3.17 ± 0.2 | 2.85 ± 0.25 |
| DICQIDTNAPVAATITS [SRB8] | 2.29 ± 0.063 | 2.45 ± 0.083 | 2.36 ± 0.096 | 2.26 ± 0.049 |
| EAIETCKNFEKTQLGST [GAL11] | 2.51 ± 0.13 | 3.1 ± 0.19 | – | 3.36 ± 0.24 |
| PKSTLDNWRREFLKWTP [ISW2] | – | 3.15 ± 0.15 | – | 2.76 ± 0.09 |
| GADVTNTTQDNGGDKEL [YCS4] | 3.18 ± 0.12 | 3.19 ± 0.083 | 3.1 ± 0.065 | 3.26 ± 0.074 |
| FDSELIHLKQKLSESLD [SMC3] | – | 2.88 ± 0.17 | 3.22 ± 0.13 | 3.24 ± 0.14 |
| IDWASPEYGRIIASASY [YGL100W/SEH1] | 2.8 ± 0.064 | 3.16 ± 0.053 | 3.09 ± 0.054 | 2.71 ± 0.055 |
| AALGEVASMELKPTNDM [SIR2] | 3.46 ± 0.13 | 3.33 ± 0.12 | 3.52 ± 0.067 | 3.17 ± 0.13 |
| KLPKVYKRSIVRNYKPL [SWI1] | 2.8 ± 0.086 | 2.99 ± 0.089 | 2.89 ± 0.074 | 2.96 ± 0.12 |
| GNRNSSSVFLPSRKDCM [BRR2] | 3.18 ± 0.086 | 3.16 ± 0.071 | 3.2 ± 0.057 | 3.22 ± 0.074 |

— the supplement of paper PMC9732359
